Reference: the supplement of paper PMC10065799, “High-throughput profiling of sequence recognition by tyrosine kinases and SH2 domains using bacterial peptide display” (eLife, 2023)

How the values were obtained:
[1] = biological target: EPHB2 (UniProt P29323); assay: phosphorylation enrichment, bacterial display (enrichment ratio); higher = better substrate or ligand; peptides without Tyr show the background
[2] = biological target: MERTK (UniProt Q12866); assay: as above
[3] = biological target: Fes (UniProt P07332); assay: as above
[4] = test system: Fer (mouse); assay: as above
[5] = test system: AncSZ; assay: as above
[6] = test system: c-Abl (mouse); assay: as above
[7] = biological target: FGFR3 (UniProt P22607); assay: as above
[8] = biological target: FGFR1 (UniProt P11362); assay: as above
[9] = biological target: Hck (UniProt P08631); assay: as above
[10] = test system: c-Src; assay: as above
[11] = biological target: Jak2 (UniProt O60674); assay: as above
[12] = biological target: Fyn (UniProt P06241); assay: as above
[13] = biological target: EPHB1 (UniProt P54762); assay: as above
[14] = biological target: Grb2 SH2 (UniProt P62993); assay: SH2 binding enrichment of the phosphorylated peptide, bacterial display (enrichment ratio); higher = better substrate or ligand; peptides without Tyr show the background
[15] = biological target: SHP2-C SH2; assay: as above
[16] = biological target: c-Src SH2; assay: as above
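For SH2 binding enrichment of the phosphorylated peptide, bacterial display in this document: peptide library displayed on the E. coli surface as eCPX fusions, selected cells deep-sequenced, score is each peptide's frequency after selection divided by its frequency in the input.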
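For phosphorylation enrichment, bacterial display in this document: 11-residue human phosphosite peptides and single-mutation variants displayed on the E. coli surface, counted by deep sequencing, each peptide's frequency after selection divided by its frequency in the unselected input library; frequency after pTyr selection over input frequency; kinase dosed for 20-30% of maximal phosphorylation in three min.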

EPHB1, sequence (P54762 whole entry, looked up): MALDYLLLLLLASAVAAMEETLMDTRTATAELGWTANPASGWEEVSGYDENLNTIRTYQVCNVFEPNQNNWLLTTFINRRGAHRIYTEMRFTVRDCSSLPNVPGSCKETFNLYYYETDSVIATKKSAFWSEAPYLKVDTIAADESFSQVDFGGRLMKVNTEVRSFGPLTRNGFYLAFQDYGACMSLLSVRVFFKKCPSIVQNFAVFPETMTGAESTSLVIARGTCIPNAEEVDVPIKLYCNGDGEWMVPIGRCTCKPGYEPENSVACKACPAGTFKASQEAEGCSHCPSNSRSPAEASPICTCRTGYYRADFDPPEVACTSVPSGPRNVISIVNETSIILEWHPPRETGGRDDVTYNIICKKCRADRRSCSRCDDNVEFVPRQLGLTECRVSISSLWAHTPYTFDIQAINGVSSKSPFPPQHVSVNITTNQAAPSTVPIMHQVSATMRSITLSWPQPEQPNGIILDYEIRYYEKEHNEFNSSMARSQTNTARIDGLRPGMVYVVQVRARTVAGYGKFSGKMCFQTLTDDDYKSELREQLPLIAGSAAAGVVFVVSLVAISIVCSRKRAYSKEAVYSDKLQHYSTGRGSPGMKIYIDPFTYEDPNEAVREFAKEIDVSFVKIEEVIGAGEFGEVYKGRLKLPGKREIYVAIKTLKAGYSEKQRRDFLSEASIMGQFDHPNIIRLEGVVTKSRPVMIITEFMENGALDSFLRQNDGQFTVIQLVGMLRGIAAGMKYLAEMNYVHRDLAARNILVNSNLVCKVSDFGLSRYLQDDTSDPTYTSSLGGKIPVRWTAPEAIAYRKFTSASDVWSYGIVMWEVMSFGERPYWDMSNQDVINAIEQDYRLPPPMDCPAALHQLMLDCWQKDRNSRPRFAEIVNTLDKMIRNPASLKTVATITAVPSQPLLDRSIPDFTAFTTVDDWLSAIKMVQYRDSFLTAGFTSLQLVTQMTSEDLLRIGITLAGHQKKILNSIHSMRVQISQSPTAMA
Jak2, sequence (O60674 whole entry, looked up): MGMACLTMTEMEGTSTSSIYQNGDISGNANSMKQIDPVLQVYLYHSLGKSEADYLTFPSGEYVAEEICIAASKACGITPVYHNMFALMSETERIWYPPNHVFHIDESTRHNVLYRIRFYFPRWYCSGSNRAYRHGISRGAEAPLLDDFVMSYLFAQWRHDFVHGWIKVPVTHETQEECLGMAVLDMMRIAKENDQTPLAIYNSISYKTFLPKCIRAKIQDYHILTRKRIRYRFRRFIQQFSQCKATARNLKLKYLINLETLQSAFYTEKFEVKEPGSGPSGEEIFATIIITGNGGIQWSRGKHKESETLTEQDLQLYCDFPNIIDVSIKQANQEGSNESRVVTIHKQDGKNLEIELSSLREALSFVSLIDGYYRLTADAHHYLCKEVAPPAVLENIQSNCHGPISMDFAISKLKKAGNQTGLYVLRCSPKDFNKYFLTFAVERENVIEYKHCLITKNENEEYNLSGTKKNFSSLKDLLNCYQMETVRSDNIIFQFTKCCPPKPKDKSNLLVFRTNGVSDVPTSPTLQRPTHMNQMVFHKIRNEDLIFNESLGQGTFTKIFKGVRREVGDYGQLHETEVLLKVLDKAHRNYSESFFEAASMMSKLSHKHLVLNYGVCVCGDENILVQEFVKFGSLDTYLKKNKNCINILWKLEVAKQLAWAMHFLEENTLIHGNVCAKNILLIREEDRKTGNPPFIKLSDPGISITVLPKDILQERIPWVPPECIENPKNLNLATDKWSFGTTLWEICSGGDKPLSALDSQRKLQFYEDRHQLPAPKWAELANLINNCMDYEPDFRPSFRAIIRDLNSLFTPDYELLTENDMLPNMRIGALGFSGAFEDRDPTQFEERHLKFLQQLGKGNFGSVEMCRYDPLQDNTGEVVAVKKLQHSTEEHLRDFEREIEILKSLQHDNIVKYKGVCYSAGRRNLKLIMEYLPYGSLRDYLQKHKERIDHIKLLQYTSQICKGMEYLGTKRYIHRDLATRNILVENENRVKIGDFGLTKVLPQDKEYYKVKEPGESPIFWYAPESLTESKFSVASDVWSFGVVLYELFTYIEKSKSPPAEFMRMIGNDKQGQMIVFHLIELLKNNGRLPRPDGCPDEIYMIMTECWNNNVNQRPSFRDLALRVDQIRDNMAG
FGFR1, sequence (P11362 whole entry, looked up): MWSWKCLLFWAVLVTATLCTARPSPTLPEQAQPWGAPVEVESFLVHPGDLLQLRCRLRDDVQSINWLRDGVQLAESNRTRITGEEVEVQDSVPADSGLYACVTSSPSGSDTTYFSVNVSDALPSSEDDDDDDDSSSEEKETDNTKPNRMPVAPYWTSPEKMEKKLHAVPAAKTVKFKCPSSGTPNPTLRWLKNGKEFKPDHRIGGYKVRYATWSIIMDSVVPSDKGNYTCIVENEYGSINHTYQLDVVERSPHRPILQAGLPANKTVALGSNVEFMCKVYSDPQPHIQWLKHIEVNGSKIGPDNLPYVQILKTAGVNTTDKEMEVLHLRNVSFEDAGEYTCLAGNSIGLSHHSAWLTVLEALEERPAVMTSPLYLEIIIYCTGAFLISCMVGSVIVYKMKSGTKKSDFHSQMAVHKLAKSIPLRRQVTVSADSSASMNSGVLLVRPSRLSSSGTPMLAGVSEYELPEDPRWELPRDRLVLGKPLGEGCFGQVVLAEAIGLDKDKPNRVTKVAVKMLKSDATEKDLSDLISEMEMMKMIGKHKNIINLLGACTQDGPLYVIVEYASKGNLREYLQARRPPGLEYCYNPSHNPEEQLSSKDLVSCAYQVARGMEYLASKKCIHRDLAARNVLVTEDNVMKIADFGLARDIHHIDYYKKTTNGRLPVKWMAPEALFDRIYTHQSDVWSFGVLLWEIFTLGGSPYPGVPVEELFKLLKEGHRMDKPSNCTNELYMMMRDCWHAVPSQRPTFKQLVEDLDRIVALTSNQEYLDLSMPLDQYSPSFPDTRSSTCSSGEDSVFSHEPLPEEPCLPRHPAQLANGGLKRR
Hck, sequence (P08631 whole entry, looked up): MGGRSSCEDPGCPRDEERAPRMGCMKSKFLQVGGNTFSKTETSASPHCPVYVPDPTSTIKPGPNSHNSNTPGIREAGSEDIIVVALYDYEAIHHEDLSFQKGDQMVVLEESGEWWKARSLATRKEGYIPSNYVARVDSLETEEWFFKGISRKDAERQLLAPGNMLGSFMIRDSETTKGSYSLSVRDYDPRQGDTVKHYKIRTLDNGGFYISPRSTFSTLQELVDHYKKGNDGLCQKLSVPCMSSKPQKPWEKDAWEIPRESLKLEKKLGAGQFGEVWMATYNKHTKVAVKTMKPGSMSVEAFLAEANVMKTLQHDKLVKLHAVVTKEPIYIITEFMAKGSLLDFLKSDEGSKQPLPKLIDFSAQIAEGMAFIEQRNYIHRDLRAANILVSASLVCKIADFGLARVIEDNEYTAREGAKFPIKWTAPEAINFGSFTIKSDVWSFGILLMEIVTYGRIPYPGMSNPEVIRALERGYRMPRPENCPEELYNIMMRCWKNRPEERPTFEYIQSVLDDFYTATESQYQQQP
MERTK, sequence (Q12866 whole entry, looked up): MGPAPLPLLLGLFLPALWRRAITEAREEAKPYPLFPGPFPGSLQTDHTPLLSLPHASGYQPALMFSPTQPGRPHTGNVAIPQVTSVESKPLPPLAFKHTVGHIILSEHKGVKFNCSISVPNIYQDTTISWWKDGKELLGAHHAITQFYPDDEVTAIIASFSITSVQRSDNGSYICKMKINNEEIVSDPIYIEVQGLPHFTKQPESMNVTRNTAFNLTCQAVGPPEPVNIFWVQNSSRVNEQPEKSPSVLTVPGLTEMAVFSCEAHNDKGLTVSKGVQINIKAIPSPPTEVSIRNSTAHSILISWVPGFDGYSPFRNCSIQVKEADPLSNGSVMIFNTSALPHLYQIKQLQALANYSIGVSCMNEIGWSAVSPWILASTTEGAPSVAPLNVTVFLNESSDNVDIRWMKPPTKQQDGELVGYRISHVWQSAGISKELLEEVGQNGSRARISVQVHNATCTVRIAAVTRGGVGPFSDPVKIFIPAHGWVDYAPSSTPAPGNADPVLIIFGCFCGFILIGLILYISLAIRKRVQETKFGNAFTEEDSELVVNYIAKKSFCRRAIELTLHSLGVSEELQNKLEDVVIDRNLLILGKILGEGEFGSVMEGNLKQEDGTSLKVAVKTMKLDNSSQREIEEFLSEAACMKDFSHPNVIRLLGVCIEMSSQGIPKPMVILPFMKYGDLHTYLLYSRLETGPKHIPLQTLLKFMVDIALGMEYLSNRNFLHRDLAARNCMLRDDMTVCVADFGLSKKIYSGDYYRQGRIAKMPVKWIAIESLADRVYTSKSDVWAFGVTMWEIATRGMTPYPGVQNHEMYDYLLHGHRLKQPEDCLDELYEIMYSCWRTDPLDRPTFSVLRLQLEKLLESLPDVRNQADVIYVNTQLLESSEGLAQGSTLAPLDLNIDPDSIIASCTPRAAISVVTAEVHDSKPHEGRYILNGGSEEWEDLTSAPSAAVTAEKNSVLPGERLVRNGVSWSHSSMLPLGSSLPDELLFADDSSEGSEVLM
Fyn, sequence (P06241 whole entry, looked up): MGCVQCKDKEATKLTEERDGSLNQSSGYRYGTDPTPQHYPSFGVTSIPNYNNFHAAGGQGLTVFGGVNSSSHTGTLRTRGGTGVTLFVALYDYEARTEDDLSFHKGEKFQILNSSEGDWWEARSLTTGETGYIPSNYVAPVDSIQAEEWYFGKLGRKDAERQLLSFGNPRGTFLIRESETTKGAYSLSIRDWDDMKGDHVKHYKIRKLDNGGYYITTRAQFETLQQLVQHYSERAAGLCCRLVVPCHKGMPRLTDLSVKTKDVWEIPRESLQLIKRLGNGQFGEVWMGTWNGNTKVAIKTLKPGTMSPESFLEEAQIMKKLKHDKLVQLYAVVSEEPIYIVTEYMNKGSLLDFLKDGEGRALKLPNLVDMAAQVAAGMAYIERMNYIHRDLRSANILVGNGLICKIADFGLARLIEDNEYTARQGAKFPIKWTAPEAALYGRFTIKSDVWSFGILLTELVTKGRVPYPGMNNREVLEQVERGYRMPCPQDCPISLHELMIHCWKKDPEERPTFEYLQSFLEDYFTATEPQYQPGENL

| Sequence | SH2 binding enrichment [14] | SH2 binding enrichment [15] | SH2 binding enrichment [16] | phosphorylation enrichment [1] | phosphorylation enrichment [2] | phosphorylation enrichment [3] | phosphorylation enrichment [4] | phosphorylation enrichment [5] | phosphorylation enrichment [6] | phosphorylation enrichment [7] | phosphorylation enrichment [8] | phosphorylation enrichment [9] | phosphorylation enrichment [10] | phosphorylation enrichment [11] | phosphorylation enrichment [12] | phosphorylation enrichment [13] |
| --- | --- | --- | --- | --- | --- | --- | --- | --- | --- | --- | --- | --- | --- | --- | --- | --- |
| GPKSTYISSAA [GOLGA5_Y62] | 0.715 | 0.52 | 0.403 | 0.506 | 0.565 | 0.7 | 0.403 | 0.731 | 0.488 | 0.51 | 0.414 | 0.492 | 0.508 | 0.638 | 0.467 | 0.331 |
| SSQTIYQRVEG [TFR2_Y23_V22I] | 0.812 | 0.898 | 1.39 | 1.41 | 2.74 | 0.716 | 1.24 | 0.756 | 0.814 | 0.602 | 0.562 | 2.71 | 1.6 | 0.525 | 0.771 | 1.5 |
| RRKRAYVEIEY [MAK16_Y282_Q277R] | 1.32 | 0.938 | 0.37 | 1.06 | 1.22 | 1.21 | 0.996 | 1.37 | 1.04 | 1.18 | 0.731 | 1.13 | 0.999 | 1.54 | 0.667 | 1.02 |
| SLAARYFNWVC [FLT4_Y1230_S1235C_YF] | 2.08 | 1.59 | 1.43 | 0.656 | 0.514 | 1.2 | 0.546 | 1.21 | 0.899 | 0.822 | 0.661 | 0.435 | 0.397 | 0.997 | 0.38 | 0.61 |
| RLQEGYDHSYY [ESD_Y258] | 0.939 | 1.05 | 1.4 | 0.53 | 0.597 | 1.01 | 0.573 | 1.21 | 1.11 | 0.928 | 0.715 | 0.611 | 1.06 | 1.05 | 0.645 | 0.717 |
| LLKANYELLNA [POLR3A_Y714_K713N] | 0.834 | 0.973 | 1.51 | 0.804 | 0.976 | 0.865 | 0.551 | 0.975 | 0.949 | 0.78 | 0.457 | 0.459 | 0.814 | 0.857 | 0.431 | 1.28 |
| DSNLIYSQIWS [FCRL3_Y662_P660L] | 0.754 | 0.951 | 0.538 | 17.1 | 10 | 12.2 | 15.7 | 2.1 | 15.4 | 6.79 | 7.38 | 9.1 | 7.08 | 2.46 | 9.04 | 15.2 |
| GCVRMYELVHR [GLE1_Y135] | 1.06 | 0.908 | 2.25 | 3.69 | 2.95 | 1.28 | 4.34 | 1.07 | 0.754 | 0.71 | 0.498 | 1.64 | 0.761 | 1.01 | 0.599 | 7.65 |
| SWDKRYCEAGF [ITGA2B_Y197] | 1.07 | 0.569 | 0.812 | 0.692 | 0.455 | 1.28 | 0.531 | 0.892 | 0.687 | 0.561 | 0.506 | 0.648 | 0.426 | 0.888 | 0.509 | 0.867 |
| ERNARYRTPKI [PTK2B_Y699] | 0.599 | 0.71 | 0.428 | 0.276 | 0.697 | 0.515 | 0.313 | 0.562 | 0.527 | 0.369 | 0.316 | 0.351 | 0.351 | 0.409 | 0.33 | 0.314 |
| IDPFIYTPFGS [CYP3A4_Y432_YF] | 0.861 | 1.06 | 0.604 | 0.549 | 2.86 | 1.12 | 1.67 | 0.927 | 0.773 | 0.779 | 0.584 | 5.82 | 6.49 | 0.73 | 6.96 | 0.686 |
| KDFTKYVAYIE [KDM4B_Y31_N29T] | 0.966 | 2.42 | 0.608 | 0.584 | 0.465 | 1.07 | 0.434 | 0.864 | 0.679 | 0.734 | 0.604 | 0.558 | 0.523 | 0.921 | 0.541 | 0.651 |
| RHAASYSSDSE [REPS1_Y116] | 0.985 | 0.735 | 0.569 | 0.381 | 0.51 | 0.806 | 0.578 | 0.702 | 0.627 | 0.611 | 0.513 | 0.41 | 0.607 | 1.19 | 0.737 | 0.382 |
| KINKMYSDHAM | 0.705 | 0.602 | 0.354 | 0.285 | 0.432 | 0.463 | 0.408 | 0.495 | 0.499 | 0.364 | 0.315 | 0.308 | 0.416 | 0.5 | 0.349 | 0.351 |
| NHRNQYQALKT [CLSPN_Y887_P892T] | 0.994 | 1 | 1.17 | 0.43 | 0.4 | 0.656 | 0.499 | 0.536 | 0.753 | 0.439 | 0.503 | 0.506 | 0.364 | 0.48 | 0.451 | 0.422 |
| EFNLMYHGTKE [IRF6_Y97_D98H] | 0.827 | 0.784 | 0.656 | 0.645 | 0.442 | 0.94 | 0.451 | 0.923 | 0.593 | 0.579 | 0.489 | 0.455 | 0.545 | 0.744 | 0.463 | 0.631 |

Second part, led by results:

| SH2 binding enrichment [14] | SH2 binding enrichment [15] | SH2 binding enrichment [16] | Sequence | phosphorylation enrichment [1] | phosphorylation enrichment [2] | phosphorylation enrichment [3] | phosphorylation enrichment [4] | phosphorylation enrichment [5] | phosphorylation enrichment [6] | phosphorylation enrichment [7] | phosphorylation enrichment [8] | phosphorylation enrichment [9] | phosphorylation enrichment [10] | phosphorylation enrichment [11] | phosphorylation enrichment [12] | phosphorylation enrichment [13] |
| --- | --- | --- | --- | --- | --- | --- | --- | --- | --- | --- | --- | --- | --- | --- | --- | --- |
| 0.897 | 0.642 | 0.43 | DLQDENDFKCK [STAT1_Y170_Y170N] | 0.737 | 0.415 | 1.86 | 0.612 | 1.42 | 0.812 | 0.853 | 0.568 | 0.602 | 0.498 | 1.55 | 0.548 | 0.621 |
| 0.967 | 0.775 | 0.882 | SVVVRYEPPEV [TP53_Y220_P219R] | 0.503 | 0.425 | 0.902 | 0.466 | 0.892 | 0.747 | 0.517 | 0.409 | 0.42 | 0.386 | 0.705 | 0.371 | 0.445 |
| 0.871 | 0.688 | 0.62 | WISNRYLDFSS [PRPH2_Y184] | 0.535 | 0.54 | 0.946 | 0.499 | 0.961 | 0.793 | 0.676 | 0.564 | 0.577 | 0.705 | 0.894 | 0.524 | 0.505 |
| 0.953 | 0.82 | 0.483 | ENELTYYCCKK [CD59_Y86] | 0.97 | 1.08 | 0.955 | 0.779 | 1.57 | 1.26 | 1.22 | 2.21 | 2.47 | 2.74 | 1.77 | 1.72 | 0.505 |
| 0.679 | 0.691 | 0.448 | MENFIYESMQF [CYP19A1_Y361_R365Q_YF] | 5.77 | 6.46 | 6.34 | 16.1 | 1.81 | 4.06 | 0.759 | 0.888 | 7.84 | 7.14 | 1.04 | 9.33 | 8.07 |
| 0.973 | 0.928 | 7.49 | DLRTGYSVPFG [TGM1_Y370_Y365D_YF] | 0.468 | 0.364 | 0.721 | 0.486 | 0.664 | 0.794 | 0.644 | 0.493 | 0.418 | 0.341 | 0.576 | 0.48 | 0.44 |
| 0.817 | 0.79 | 0.424 | ADLAKYICENR [ALB_Y287_Q292R] | 0.406 | 0.45 | 0.946 | 0.498 | 0.84 | 1.36 | 0.691 | 0.469 | 0.447 | 0.467 | 0.928 | 0.427 | 0.537 |
| 1.26 | 0.836 | 0.936 | FGIAQYCCRMG [LRRK2_Y2023_YF] | 6.66 | 1.25 | 0.797 | 0.467 | 0.908 | 1.34 | 0.584 | 0.614 | 0.777 | 0.417 | 0.625 | 0.423 | 0.751 |
| 0.9 | 1.09 | 0.591 | TNYRLYLRSLE [MTM1_Y71] | 0.556 | 0.554 | 1.3 | 0.524 | 1.11 | 1.31 | 0.776 | 0.595 | 0.555 | 0.504 | 1.22 | 0.552 | 0.666 |
| 0.895 | 0.842 | 0.56 | ESFCLYPPVPQ [CYP4B1_Y377_R375C] | 0.595 | 0.447 | 1.12 | 0.582 | 0.874 | 0.739 | 0.647 | 0.539 | 0.484 | 0.477 | 0.906 | 0.459 | 0.805 |
| 0.778 | 0.805 | 0.769 | LSRDVYEEDSF [RET_Y900_YF] | 0.908 | 0.819 | 2.02 | 0.946 | 1.77 | 1.57 | 0.89 | 0.813 | 0.875 | 0.828 | 1.7 | 0.573 | 1.07 |
| 0.852 | 0.737 | 0.829 | TEVRRYVLPLN [RPE65_Y368_P363T] | 0.4 | 0.401 | 0.887 | 0.514 | 0.649 | 0.526 | 0.785 | 0.482 | 0.407 | 0.38 | 0.661 | 0.412 | 0.377 |
| 0.949 | 0.92 | 0.724 | AVEDQYYRVDC [FHL1_Y207_C209R] | 0.701 | 0.622 | 1.46 | 0.718 | 3.59 | 0.844 | 6.95 | 8.7 | 0.908 | 1.6 | 1.87 | 0.982 | 0.831 |
| 0.703 | 0.636 | 0.434 | KVALVYGQMNQ [ATP5F1B_Y269_E274Q] | 0.641 | 0.425 | 1.27 | 0.506 | 0.726 | 0.829 | 0.634 | 0.424 | 1.78 | 3.17 | 0.841 | 2.16 | 0.496 |
| 0.87 | 0.645 | 0.436 | KEAALYPHLLP [SQSTM1_Y383_P387L] | 0.544 | 0.432 | 0.757 | 0.419 | 0.648 | 0.549 | 0.481 | 0.512 | 0.438 | 0.366 | 0.649 | 0.405 | 0.427 |
| 0.944 | 0.614 | 0.628 | KIFPEYLSNWT [AIFM1_Y347_L344F] | 0.512 | 0.47 | 0.916 | 0.502 | 0.914 | 0.657 | 0.721 | 0.811 | 0.488 | 0.479 | 1.18 | 0.43 | 0.513 |
| 0.61 | 0.654 | 0.333 | TENAGYFFQVS | 0.546 | 0.397 | 1.08 | 0.414 | 1.11 | 0.89 | 0.774 | 0.714 | 0.442 | 0.384 | 1.21 | 0.435 | 0.482 |
